Test results reported in the supplement of paper PMC9170038.

System: MS2 coat protein
Test: apparent KD of MS2 coat protein; higher = weaker reporter binding
Details: Eterna round: R107
Outline: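 Titration buffer: 100 mM Tris-HCl pH 7.5, 80 mM KCl, 4 mM MgCl2, without or with constant ligand. Designed RNA switches transcribed on-chip from Illumina sequencing clusters received SNAP-549-labelled MS2 coat protein in twofold steps from 0.7 or 1.5 nM to 3 µM. Apparent KD is the median per design of fits to normalised cluster binding curves.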

[1] = input ligand: theophylline 20 uM
[2] = input ligand: theophylline 2 mM
[3] = input ligand: tryptophan 2.4 mM

GUUAGUUACACGGCCGCCACUCUUUGGCUUGGCUCAAGCUCCCAACAUGAGGAUCACCCAUGUCAGAGGACCGGGUGAACAACGU [theeternabot_sameState_MS2_Trp_B_28]
apparent KD of MS2 coat protein (input ligand: arginine 13.2 mM): 56.1 nM
apparent KD of MS2 coat protein [1]: 180 nM
apparent KD of MS2 coat protein [2]: 205 nM

GUUAUAGACGGAAGGAGCGCGACCACAUGAGGAUCACCCAUGUAUUGUGUUGGUAAUAGGUCGCAGGUAGGUCGCCGGUUAAUGA [#04 Same State - Arginine B]
apparent KD of MS2 coat protein (input ligand: arginine 13.2 mM): 27.1 nM
apparent KD of MS2 coat protein (input ligand: none): 36.6 nM
apparent KD of MS2 coat protein [1]: 50.1 nM
apparent KD of MS2 coat protein [2]: 38 nM
apparent KD of MS2 coat protein [3]: 31 nM

GUUAUAUACUCGGCCGCCACUGAGAGAGUCAUGUAAACAUGAGGAUCACCCAUGUAAUAUAUAUACAGGACCGGGAGUAUAGUAA [4.D]
apparent KD of MS2 coat protein (input ligand: arginine 13.2 mM): 19.8 nM
apparent KD of MS2 coat protein [1]: 22 nM
apparent KD of MS2 coat protein [2]: 19.6 nM

GUUGAGACCUCGGCCGCCACUCGCCAUGAGGAUCUCCCAUGUAACAUGAGGAUCACCCAUGUACUGAGGACCGGGAGGUCCUUGU [Same State Tryptophan B GF 16]
apparent KD of MS2 coat protein (input ligand: arginine 13.2 mM): 12 nM
apparent KD of MS2 coat protein [1]: 18.5 nM
apparent KD of MS2 coat protein [2]: 15.5 nM

GUUGGAUACUCGGCCGCCACUGAGAGAGUCAUGUGAACAUGAGGAUCACCCAUGUAAUAUAUAUACAGGACCGGGAGUGUUGUAA [4.I]
apparent KD of MS2 coat protein (input ligand: arginine 13.2 mM): 20.3 nM
apparent KD of MS2 coat protein [1]: 43.7 nM
apparent KD of MS2 coat protein [2]: 32.5 nM

GUUGGUUUGCGAAGGAGCGGGUAUGUUUUCUACUGGAUCCUAACAUGAGGAUCACCCAUGUCCCAGGUAGGUCGCGCGGGCUUUG [12.aA]
apparent KD of MS2 coat protein (input ligand: arginine 13.2 mM): 35.6 nM
apparent KD of MS2 coat protein (input ligand: none): 38.6 nM
apparent KD of MS2 coat protein [1]: 75.2 nM
apparent KD of MS2 coat protein [2]: 54.5 nM
apparent KD of MS2 coat protein [3]: 45.8 nM

UAAAACAUGAGGAUCACCCAUGUAAAUGAUACCAGAGUGAUGAUCCUCCCUUGGCAGCAUAACGCUGAUUGAUUACAAUCAGCGA [Mat - Same State Theophlline A - Mod of Eli - D22]
apparent KD of MS2 coat protein (input ligand: arginine 13.2 mM): 55.2 nM
apparent KD of MS2 coat protein [1]: 160 nM
apparent KD of MS2 coat protein [3]: 58.3 nM

UAAACUACACAUGAGGAUCACCCAUGUGGCCGAGGACCGGUACGGCCGCCACUCGUGUGUUAAUAAAAGAACCGCAAAGUUCUUU [Raesonisso]
apparent KD of MS2 coat protein (input ligand: arginine 13.2 mM): 74.2 nM
apparent KD of MS2 coat protein [1]: 410 nM
apparent KD of MS2 coat protein [2]: 678 nM

UAAAUACAUGAGGAUCACCCAUGUUUGGAUACCAGAUAUGACAUUAUCCCUUGGCAGCCAUUCGUUCCAAAUGCUAUUGUGAAGG [theeternabot_sameState_MS2_Theo_A_26]
apparent KD of MS2 coat protein (input ligand: arginine 13.2 mM): 20.6 nM
apparent KD of MS2 coat protein [1]: 30.8 nM
apparent KD of MS2 coat protein [3]: 22 nM

UAAUAAAUAAAUCCAAGGUGAAGGUCAGAUACCAGCCAGAUAACUGGCCCUUGGCAGCUGAAUAAACUUGAGGAACACCCAAGUA [TheoAS 28 #OpenEnded #MS2Late #AlternativeMS2]
apparent KD of MS2 coat protein (input ligand: arginine 13.2 mM): 16.7 nM
apparent KD of MS2 coat protein (input ligand: none): 23 nM
apparent KD of MS2 coat protein [1]: 31.3 nM
apparent KD of MS2 coat protein [2]: 82 nM
apparent KD of MS2 coat protein [3]: 22.7 nM

UAAUAAGUGCCGGUUCUCAGAUCCUCAUGUCGAGGACCGGUACGGCCGCCACUCGAAACAUGAGGAUCACCCAUGUAAUAAUAAU [#08 Exclusion Tryptophan A]
apparent KD of MS2 coat protein (input ligand: arginine 13.2 mM): 47.8 nM
apparent KD of MS2 coat protein [1]: 105 nM
apparent KD of MS2 coat protein [2]: 73.1 nM

UAAUCGUAGGCGGCCGCCACUUUUUGGUAGUGUCCAUUGUACACUCACAUGAGGAUCACCCAUGUAAGGACCGGGCCCGCAUCAG [theeternabot_exclusion_MS2_Trp_B_32]
apparent KD of MS2 coat protein (input ligand: arginine 13.2 mM): 17.9 nM
apparent KD of MS2 coat protein [1]: 24.7 nM
apparent KD of MS2 coat protein [2]: 17.7 nM

UAAUGCAUGACGGCCGCCACUAGAACAUGAGGAUCACCCAUGUACGGCGGCCGUCAUGGGUGGACUAGGACCGGGUCAUGCAUAU [(Trp1)-(Ms2)-(T)'-(M)'-(Trp2)_Design5]
apparent KD of MS2 coat protein (input ligand: arginine 13.2 mM): 8.2 nM
apparent KD of MS2 coat protein [1]: 11.6 nM
apparent KD of MS2 coat protein [2]: 10.5 nM

UACAUGAGGAUCACCCAUGUCGGCAGGGAAGGAGCGGCAAUAAAGCCAGGUAGGUCGCCCAUUAGUAUUUAUAAAUAAAUAUCCA [Same State - Arginine A]
apparent KD of MS2 coat protein (input ligand: arginine 13.2 mM): 53.6 nM
apparent KD of MS2 coat protein (input ligand: none): 90 nM
apparent KD of MS2 coat protein [1]: 74.4 nM
apparent KD of MS2 coat protein [2]: 75.9 nM
apparent KD of MS2 coat protein [3]: 66.9 nM

UACAUGAGGAUCACCCAUGUGUAGAGGGAUACCAGUGACAGUAAGCGCCCUUGGCAGCCCGUGAACAAUGGGUGAGCUAAAUAGU [#18 Exclusion-TheophyllineA]
apparent KD of MS2 coat protein (input ligand: arginine 13.2 mM): 28.7 nM
apparent KD of MS2 coat protein (input ligand: none): 37.9 nM
apparent KD of MS2 coat protein [1]: 75.5 nM
apparent KD of MS2 coat protein [2]: 133 nM
apparent KD of MS2 coat protein [3]: 57.4 nM

UACCGAUGAAGAAGGAGCGAUUUUAUGUUACAUGAGGAUCACCCAUGUGGACUAGGUGAAGAUCAGGUAGGUCGCUUCAUCGGUA [SSAB NP+V+V2 #20]
apparent KD of MS2 coat protein (input ligand: arginine 13.2 mM): 19.8 nM
apparent KD of MS2 coat protein (input ligand: none): 20.3 nM
apparent KD of MS2 coat protein [1]: 31.9 nM
apparent KD of MS2 coat protein [2]: 22 nM
apparent KD of MS2 coat protein [3]: 24.5 nM

UACUUACAUGAGGAUCACCCAUGUGGCGAAGGAGCGGCAUGAGGGCCAGGUAGGUCGCGCCAACAUACAUACAUGAGGAUCUCCC [Same State Arginine A 4]
apparent KD of MS2 coat protein (input ligand: arginine 13.2 mM): 46.3 nM
apparent KD of MS2 coat protein (input ligand: none): 78.9 nM
apparent KD of MS2 coat protein [1]: 127 nM
apparent KD of MS2 coat protein [2]: 118 nM
apparent KD of MS2 coat protein [3]: 93.1 nM

UAGCGAUUUGGUGAUACCAGACGUGUGCAGUCCUCAGACAUGAGGAUCACCCAUGUAUGCGUCCCUUGGCAGCGCUAUGAGGACA [Theo B Ex t6]
apparent KD of MS2 coat protein (input ligand: arginine 13.2 mM): 66.5 nM
apparent KD of MS2 coat protein (input ligand: none): 48.4 nM
apparent KD of MS2 coat protein [1]: 105 nM
apparent KD of MS2 coat protein [2]: 201 nM
apparent KD of MS2 coat protein [3]: 44.3 nM

UAUACAUGAGGAUCACCCAUGUGCCAUGAUACCAGACAUGAAAAUGUCCCUUGGCAGCAUGGGAAAUGUAUAGCGGGAAACCCGA [Slatina]
apparent KD of MS2 coat protein (input ligand: arginine 13.2 mM): 52.7 nM
apparent KD of MS2 coat protein [1]: 201 nM
apparent KD of MS2 coat protein [3]: 60.8 nM

UAUAUAUAUCACUAACUGUUGUGGACGUCUCGAGGACCGGUACGGCCGCCACUCGGGCGGCCUCACAUGAGGAUCACCCAUGUCC [XTryp A #4]
apparent KD of MS2 coat protein (input ligand: arginine 13.2 mM): 92.9 nM
apparent KD of MS2 coat protein [1]: 192 nM
apparent KD of MS2 coat protein [2]: 149 nM

UAUAUAUUGAUGGAUACCAGCAGAGAAAACGUUUAUCCUAACAUGAGGAUCACCCAUGUAUGCCCUUGGCAGCUGUUGAUAUAUA [8.K]
apparent KD of MS2 coat protein (input ligand: arginine 13.2 mM): 21.7 nM
apparent KD of MS2 coat protein [1]: 28.7 nM
apparent KD of MS2 coat protein [3]: 18.4 nM

UAUCCACAUGAGGAUCACCCAUGUAGGGAAGGAGCGGUGGUUGCACCAGGUAGGUCGCCUUGCUGAGGAUAACCGGUGGAAUCGU [Exclusion - Arginine A (Freestyle 28)]
apparent KD of MS2 coat protein (input ligand: arginine 13.2 mM): 32.8 nM
apparent KD of MS2 coat protein (input ligand: none): 18.8 nM
apparent KD of MS2 coat protein [1]: 26.9 nM
apparent KD of MS2 coat protein [2]: 33.6 nM
apparent KD of MS2 coat protein [3]: 31.1 nM

UAUGAGCGCACGGCCGCCACUGUCUUCAUCUGUUUGUCUACAUGAGGAUCACCCAUGUUGGUUUACAGGACCGGGUGCAACUAUG [SSTryp B #10]
apparent KD of MS2 coat protein (input ligand: arginine 13.2 mM): 26.9 nM
apparent KD of MS2 coat protein [1]: 38.1 nM
apparent KD of MS2 coat protein [2]: 33.8 nM

UCACAUGAGGAUCACCCAUGUACAACUGAAGGAGCGAGACAAAACUCAGGUAGGUCGCAGAAUAAACAAUAGCAUACGACAUGGG [Exclusion Arginine A GF 19]
apparent KD of MS2 coat protein (input ligand: arginine 13.2 mM): 44.6 nM
apparent KD of MS2 coat protein (input ligand: none): 31 nM
apparent KD of MS2 coat protein [1]: 43.1 nM
apparent KD of MS2 coat protein [2]: 26.3 nM
apparent KD of MS2 coat protein [3]: 27.7 nM

UCACGACGCAACGUGAAAUAAUAAACAGAAGGAGCGAGGAAAGCCUCAGGUAGGUCGCUGACAUGAGGAUCACCCAUGUAUUACA [Same State Arginine A GF5]
apparent KD of MS2 coat protein (input ligand: arginine 13.2 mM): 27.1 nM
apparent KD of MS2 coat protein (input ligand: none): 31.5 nM
apparent KD of MS2 coat protein [1]: 41.2 nM
apparent KD of MS2 coat protein [2]: 35.1 nM
apparent KD of MS2 coat protein [3]: 32.2 nM

UCCACAUGAGGAUCACCCAUGUAAUCAGAUACCAGUGACGAAAGUCACCCUUGGCAGCUGAUUACUUUAGUUCGAGGGUGUUUGA [EThA NP+V+V2 #4 Same Structure]
apparent KD of MS2 coat protein (input ligand: arginine 13.2 mM): 84.5 nM
apparent KD of MS2 coat protein [1]: 148 nM
apparent KD of MS2 coat protein [3]: 79.5 nM
